B1: LINE1-full (parent)
chain: UACGUAGGUGGUUUUCCCCUGAUAGUGCUAAGGGGGCCUGGAAGUUUGGACUGGGCAGAGCUCAACACAGCGUGGCAAAGUGGCUGUGGCUAGACUGCCUCUCUGGAUUCCUCGUCACUCAGCAGGGCAUCUCUGAGAGAAAUGCC

Variants of: B1
Experiment: self-cleavage, relative activity (ratio to wild type); higher = more cleavage; in vitro, sequencing; the parent is a self-cleaving ribozyme
U62C U119A gave a self-cleavage of 0.07.
Work on A65G C90A yielded a self-cleavage of 0.01.
U13G A69G gave a self-cleavage of 0.67.
For U23C U52C, the self-cleavage was 1.43.
Variant U87C A117G has a self-cleavage of 0.41.
A30G A65U showed a self-cleavage of 0.39.
Work on G44U A64G yielded a self-cleavage of 0.12.
For A64U U100C, the self-cleavage was 0.77.
A30G U132C showed a self-cleavage of 1.05.
U12A A64G showed a self-cleavage of 0.27.
For U9A A65G, the self-cleavage was 0.21.
U52A G137A gave a self-cleavage of 0.99.
Work on C28U C101U yielded a self-cleavage of 1.06.
G8A C37A gave a self-cleavage of 0.87.
With U20C A136G the self-cleavage was 1.26.
For G86A A94G, the self-cleavage was 0.06.
G58A C145U gave a self-cleavage of 0.04.
Work on A77G yielded a self-cleavage of 2.12.
With C123U A129G the self-cleavage was 1.37.
For G48U A121G, the self-cleavage was 0.99.
U62C G70U gave a self-cleavage of 0.
Work on C16U A140U yielded a self-cleavage of 1.78.
Variant A31G G126A has a self-cleavage of 1.32.
With U46C G114A the self-cleavage was 1.22.
Variant U13C U134C has a self-cleavage of 1.21.
For U5C U115A, the self-cleavage was 0.91.
With U23C G48A the self-cleavage was 1.44.
Variant U39A A57G has a self-cleavage of 0.87.
For U15C C63U, the self-cleavage was 0.43.
Variant U45C G48U has a self-cleavage of 0.9.
For G33C A121G, the self-cleavage was 0.21.
Variant C37U U52G has a self-cleavage of 0.88.
Variant C18U A64U has a self-cleavage of 0.19.
U46C U87G gave a self-cleavage of 0.55.
In the case of U96C A129C, the self-cleavage is reported as 0.15.
With G83A A92U the self-cleavage was 0.27.
A79U U108C showed a self-cleavage of 2.3.
For U108A A140G, the self-cleavage was 1.58.
With U119C A129G the self-cleavage was 1.88.
In the case of A43G A78C, the self-cleavage is reported as 1.74.
Variant A24U U62A has a self-cleavage of 0.03.
U9C A92U showed a self-cleavage of 0.28.
C71U A138U gave a self-cleavage of 1.04.
G114U A136U gave a self-cleavage of 1.23.
U91G G114C showed a self-cleavage of 0.02.
Work on G4U U109C yielded a self-cleavage of 1.07.
In the case of U15A U108C, the self-cleavage is reported as 1.49.
For G127A U132C, the self-cleavage was 0.78.
In the case of U91C U102C, the self-cleavage is reported as 0.4.
U20A A78U showed a self-cleavage of 1.34.
Work on A92G G127A yielded a self-cleavage of 0.12.
For A69U G80U, the self-cleavage was 0.03.
U12G G139A gave a self-cleavage of 0.95.
U23A G144A gave a self-cleavage of 1.85.
Work on G60C U134A yielded a self-cleavage of 0.07.
Work on A6G U15G yielded a self-cleavage of 0.97.
C51U A78G gave a self-cleavage of 1.09.
U1C U20A showed a self-cleavage of 0.88.
Work on U15C A30G yielded a self-cleavage of 1.14.
Work on A107U A117C yielded a self-cleavage of 2.32.
In the case of U91C A129U, the self-cleavage is reported as 0.82.
For U108A U119A, the self-cleavage was 0.96.
In the case of U1C U102A, the self-cleavage is reported as 0.25.
Work on U62A A136U yielded a self-cleavage of 0.14.
U47C G86U showed a self-cleavage of 0.13.
Work on U87C A94G yielded a self-cleavage of 0.14.
U115A U130C gave a self-cleavage of 1.62.
C28U C123U showed a self-cleavage of 1.03.
In the case of A31G A50G, the self-cleavage is reported as 1.42.
For C18U U96A, the self-cleavage was 0.08.
With U20A C110A the self-cleavage was 1.4.
U20A A77U gave a self-cleavage of 1.14.
Work on G35A U62A yielded a self-cleavage of 0.05.
A2G A117G showed a self-cleavage of 0.3.
Work on A65G A94U yielded a self-cleavage of 0.05.
With A77G U102A the self-cleavage was 2.63.
Variant C61U U87C has a self-cleavage of 0.03.
Variant U13C U47A has a self-cleavage of 1.02.
G4A U73A gave a self-cleavage of 0.97.
A64U G93U showed a self-cleavage of 0.05.
U13C G93A gave a self-cleavage of 0.17.
With C16U A92G the self-cleavage was 0.2.
For C19U U46C, the self-cleavage was 1.
A24G U132C gave a self-cleavage of 1.17.
Work on U9C G139A yielded a self-cleavage of 1.09.
A42G G75A gave a self-cleavage of 1.14.
Variant A57G G127A has a self-cleavage of 0.94.
With A24G U47A the self-cleavage was 1.44.
Variant U15C U102G has a self-cleavage of 0.8.
In the case of A77U A94G, the self-cleavage is reported as 0.24.
Work on C28A G32A yielded a self-cleavage of 0.7.
Work on A79U U143C yielded a self-cleavage of 2.02.
In the case of G97A G114A, the self-cleavage is reported as 0.15.
Work on U102C C113U yielded a self-cleavage of 1.48.
Work on A69U C71U yielded a self-cleavage of 0.02.
A65G gave a self-cleavage of 0.06.
In the case of A43G U52G, the self-cleavage is reported as 1.64.
With G33U A64G the self-cleavage was 0.21.
Work on U13A U96A yielded a self-cleavage of 0.05.
With A124U A140U the self-cleavage was 1.09.
Work on A69G A92U yielded a self-cleavage of 0.13.
With A2G U15A the self-cleavage was 1.
For U26A U87C, the self-cleavage was 0.15.
For A42G U47G, the self-cleavage was 0.88.
G55A C110U gave a self-cleavage of 0.53.
Work on A42U C56A yielded a self-cleavage of 0.05.
Variant A2G U46C has a self-cleavage of 0.72.
A79G U100A showed a self-cleavage of 0.71.
A22G A117C showed a self-cleavage of 2.12.
Work on C56U A59G yielded a self-cleavage of 0.05.
Variant C19A has a self-cleavage of 0.97.
Variant U39A U143C has a self-cleavage of 1.42.
In the case of U29C U130A, the self-cleavage is reported as 1.26.
U29C U130C gave a self-cleavage of 1.52.
U46C C84U gave a self-cleavage of 0.2.
With A50G G125A the self-cleavage was 0.39.
U14G U132C showed a self-cleavage of 1.13.
C63A U73A showed a self-cleavage of 0.06.
For A42G A107G, the self-cleavage was 1.7.
For G48A U81C, the self-cleavage was 1.14.
Variant C56A A124G has a self-cleavage of 0.03.
Variant U46C G80A has a self-cleavage of 2.95.
U9G U96C showed a self-cleavage of 0.
Work on A92G G137U yielded a self-cleavage of 0.07.
A64G U115G gave a self-cleavage of 0.35.
C37G showed a self-cleavage of 1.13.
G58A U81G gave a self-cleavage of 0.12.
Work on U47C A67G yielded a self-cleavage of 0.88.
With A2G A129U the self-cleavage was 0.62.
In the case of U12G U108A, the self-cleavage is reported as 0.77.
G75A G83A showed a self-cleavage of 0.76.
U47C A50U showed a self-cleavage of 1.5.
G4A U81A gave a self-cleavage of 1.34.
Work on U96G U112C yielded a self-cleavage of 0.05.
A64G A141C showed a self-cleavage of 0.11.
In the case of U13C G86A, the self-cleavage is reported as 0.13.
Work on U12A A138U yielded a self-cleavage of 1.02.
In the case of U73G U87A, the self-cleavage is reported as 0.03.
For C16A A67G, the self-cleavage was 1.02.
U46C C56U gave a self-cleavage of 0.5.
Variant U15C A129U has a self-cleavage of 1.06.
U1C U130A showed a self-cleavage of 0.83.
For C98G U102C, the self-cleavage was 0.14.
In the case of U14C C120U, the self-cleavage is reported as 1.48.
G40A A136G showed a self-cleavage of 0.85.
In the case of G93A C95G, the self-cleavage is reported as 0.04.
For U52C G55A, the self-cleavage was 0.14.
A2G G144A gave a self-cleavage of 0.86.
With A77G G88A the self-cleavage was 0.09.
G33A A136U showed a self-cleavage of 1.69.
In the case of A2U U52A, the self-cleavage is reported as 0.92.
In the case of U13C G58C, the self-cleavage is reported as 0.08.
In the case of U14C U45G, the self-cleavage is reported as 1.34.
Work on C63U A79G yielded a self-cleavage of 0.58.
Work on G44U A142G yielded a self-cleavage of 1.68.
With U26C U62C the self-cleavage was 0.1.
A59G G75A showed a self-cleavage of 0.04.
In the case of U9C A78C, the self-cleavage is reported as 1.5.
For U26A C84U, the self-cleavage was 0.02.
G11A U119C gave a self-cleavage of 0.93.
For G89C A136G, the self-cleavage was 0.06.
Work on A79G U130A yielded a self-cleavage of 1.09.
Work on U52C C113U yielded a self-cleavage of 0.99.
U73G A124U showed a self-cleavage of 1.36.
For C71G U81A, the self-cleavage was 0.28.
Variant U96C G127C has a self-cleavage of 0.39.
For A30U C37G, the self-cleavage was 0.81.

Reference: the RNAGym collection of RNA variant scans (doi:10.7554/elife.90254)
